From patent publication US20220315663A1 (published 2022)

Target: T1, cynomolgus monkey CD79b antigen (cynomolgus monkey)
T1 construct: also called cyno CD79b; CD9W1.001
Test: SPR, cyno CD79b against human CD79b (refers to Table 32)

B1: C923B38 (trispecific antibody, human IgG1, kappa, L234A L235A)
heavy: QVQLQESGPGLVKPSETLSLTCSVSGASISSFYWSWIRQPADEGLEWIGRISPSGKTNYIPSLKSRIIMSLDASKNQFSLRLNSVTAADTAMYYCARGEYSGTYSYSFDVWGQGTMVTVSSASTKGPSVFPLAPSSKSTSGGTAALGCLVKDYFPEPVTVSWNSGALTSGVHTFPAVLQSSGLYSLSSVVTVPSSSLGTQTYICNVNHKPSNTKVDKKVEPKSCDKTHTCPPCPAPEAAGGPSVFLFPPKPKDTLMISRTPEVTCVVVSVSHEDPEVKFNWYVDGVEVHNAKTKPREEQYNSTYRVVSVLTVLHQDWLNGKEYKCKVSNKALPAPIEKTISKAKGQPREPQVYTLPPSREEMTKNQVSLSCAVKGFYPSDIAVEWESNGQPENNYKTTPPVLDSDGSFFLVSKLTVDKSRWQQGNVFSCSVMHEALHNRFTQKSLSLSPGK
light: DIVMTQSPLSLSVTPGEPASISCRSSESLLDSEDGNTYLDWFLQKPGQSPQLLIYTLSYRASGVPDRFSGSGSDTDFTLHISSLEAEDVGLYYCMQRMEFPLTFGQGTKVEIKRTVAAPSVFIFPPSDEQLKSGTASVVCLLNNFYPREAKVQWKVDNALQSGNSQESVTEQDSKDSTYSLSSTLTLSKADYEKHKVYACEVTHQGLSSPVTKSFNRGEC
chain: EIVLTQSPATLSASPGERVTLSCSASSSVSYMNWYQQKPGQAPRRWIYDSSKLASGVPARFSGSGSGRDYTLTISSLEPEDFAVYYCQQWSRNPPTFGGGTKVEIKGGSEGKSSGSGSESKSTGGSQVQLVQSGAEVKKPGSSVKVSCKASGYTFTRSTMHWVKQAPGQGLEWIGYINPSSAYTNYNQKFQGRVTLTADKSTSTAYMELSSLRSEDTAVYYCASPQVHYDYAGFPYWGQGTLVTVSSEPKSSDKTHTCPPCPAPEAAGGPSVFLFPPKPKDTLMISRTPEVTCVVVSVSHEDPEVKFNWYVDGVEVHNAKTKPREEQYNSTYRVVSVLTVLHQDWLNGKEYKCKVSNKALPAPIEKTISKAKGQPREPQVYTLPPSREEMTKNQVSLWCLVKGFYPSDIAVEWESNGQPENNYKTTPPVLDSDGSFFLYSKLTVDKSRWQQGNVFSCSVMHEALHNHYTQKSLSLSPGKGGSEGKSSGSGSESKSTGGSAIQLTQSPSSLSASVGDRVTITCRASSSVSYIHWFQQKPGKAPKPLIYATSNLASGVPSRFSGSGSGTDFTLTISSLQPEDFATYYCQQWTSNPPTFGQGTKLEIKGGSEGKSSGSGSESKSTGGSQVQLVQSGAEVKKPGSSVKVSCKASGYTFTSYNMHWVRQAPGQGLEWMGAIYPGNGDTSYAQKFQGRVTITADKSTSTAYMELSSLRSEDTAVYYCARSTYYGGDWYFNVWGQGTLVTVSS
notes: IgG1 trispecific: Fab to CD79b; second chain carries the CD3 scFv, the Fc and the CD20 scFv; also called CD79b×CD20×CD3 trispecific antibody
fold weaker affinity compared to human: > 10000 fold
